From the supplement of paper PMC9112550, “Optimization of the antimicrobial peptide Bac7 by deep mutational scanning” (BMC Biology, 2022) come the findings set out here.
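Also: peptides expressed intracellularly from a pBAD plasmid library in pooled LB shake-flask culture, induced with 0.3% L-arabinose, DNA abundance read by NGS, three biological replicates, DESeq2 with apeglm shrinkage.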

This data set has as its system Escherichia coli TOP10. The experiment in a line: shrunken log2 fold change of peptide-encoding DNA abundance (4.5 h post-induction vs induction); higher = less antimicrobial activity (less host growth inhibition). To be noted: time post-induction: 4.5 h; library: site-saturation at positions 5, 18, 19, 20.
For RRIRCRPPRLPRPRPRPHPDPRP, the “shrunken log2 fold change” value was -0.0728.

Regarding RRIRTRPPRLPRPRPRPPVMPRP, the “shrunken log2 fold change” value is -0.113.

In the case of RRIRQRPPRLPRPRPRPLMIPRP, the “shrunken log2 fold change” value was -0.0458.

For RRIRVRPPRLPRPRPRPACCPRP, the “shrunken log2 fold change” value is 0.161.

For the sequence RRIRHRPPRLPRPRPRPDHTPRP, the “shrunken log2 fold change” value was -0.307.

For the sequence RRIRSRPPRLPRPRPRPMMAPRP, the “shrunken log2 fold change” value is -0.199.

As to RRIRWRPPRLPRPRPRPMPAPRP, the “shrunken log2 fold change” value is 0.995.

RRIRKRPPRLPRPRPRPHNSPRP: the “shrunken log2 fold change” value was -0.24.

Consider RRIRPRPPRLPRPRPRPDFAPRP, for which the “shrunken log2 fold change” value stood at 0.0996.

Take RRIRVRPPRLPRPRPRPRADPRP: the “shrunken log2 fold change” value came out at 0.43.

Take RRIRFRPPRLPRPRPRPFPVPRP: the “shrunken log2 fold change” value is -0.0374.

With RRIRPRPPRLPRPRPRPNQVPRP, the “shrunken log2 fold change” value was found to be 0.0456.

RRIRLRPPRLPRPRPRPVKPPRP: the “shrunken log2 fold change” value came to 0.0377.

As for RRIRHRPPRLPRPRPRPHWNPRP, the “shrunken log2 fold change” value is -0.407.

As for RRIRFRPPRLPRPRPRPYHCPRP, the “shrunken log2 fold change” value is 0.0331.

Regarding RRIRFRPPRLPRPRPRPEGGPRP, the “shrunken log2 fold change” value was determined as 0.586.

Consider RRIRMRPPRLPRPRPRPLEWPRP, for which the “shrunken log2 fold change” value was 0.31.

Take RRIRSRPPRLPRPRPRPWMCPRP: the “shrunken log2 fold change” value was -0.391.

With RRIRSRPPRLPRPRPRPTNVPRP, the “shrunken log2 fold change” value is -0.358.

Consider RRIRRRPPRLPRPRPRPPWDPRP, for which the “shrunken log2 fold change” value is 0.577.

Take RRIRQRPPRLPRPRPRPDHIPRP: the “shrunken log2 fold change” value was -0.0197.

Take RRIRKRPPRLPRPRPRPVCGPRP: the “shrunken log2 fold change” value was determined as 0.62.

For RRIRLRPPRLPRPRPRPTVAPRP, the “shrunken log2 fold change” value is 0.0307.

Turning to RRIRGRPPRLPRPRPRPCAVPRP, the “shrunken log2 fold change” value stood at 0.66.

Take RRIRARPPRLPRPRPRPALHPRP: the “shrunken log2 fold change” value came to 0.651.

As for RRIRCRPPRLPRPRPRPQQNPRP, the “shrunken log2 fold change” value amounted to 0.0237.

Regarding RRIRNRPPRLPRPRPRPFPKPRP, the “shrunken log2 fold change” value came out at 0.0299.

As for RRIRCRPPRLPRPRPRPRVGPRP, the “shrunken log2 fold change” value came to 0.472.

As to RRIRPRPPRLPRPRPRPNQLPRP, the “shrunken log2 fold change” value was -0.258.

Regarding RRIRCRPPRLPRPRPRPLEGPRP, the “shrunken log2 fold change” value was 0.15.

In the case of RRIRPRPPRLPRPRPRPEIEPRP, the “shrunken log2 fold change” value was 0.0922.

Turning to RRIRQRPPRLPRPRPRPKVIPRP, the “shrunken log2 fold change” value was -0.0316.

In the case of RRIRVRPPRLPRPRPRPMKIPRP, the “shrunken log2 fold change” value is -0.232.

For the sequence RRIRTRPPRLPRPRPRPIWNPRP, the “shrunken log2 fold change” value was -0.169.

On to RRIRMRPPRLPRPRPRPWGIPRP, for which the “shrunken log2 fold change” value was found to be 0.0388.

As for RRIRIRPPRLPRPRPRPFLRPRP, the “shrunken log2 fold change” value was -0.2.

RRIRNRPPRLPRPRPRPTIQPRP: the “shrunken log2 fold change” value was -0.213.

In the case of RRIRARPPRLPRPRPRPYKNPRP, the “shrunken log2 fold change” value was -0.524.

As to RRIRKRPPRLPRPRPRPARGPRP, the “shrunken log2 fold change” value is 0.766.

Consider RRIRNRPPRLPRPRPRPGVDPRP, for which the “shrunken log2 fold change” value is -0.154.

As for RRIRDRPPRLPRPRPRPVVWPRP, the “shrunken log2 fold change” value is 0.902.

RRIRNRPPRLPRPRPRPGIMPRP: the “shrunken log2 fold change” value is -0.186.

Turning to RRIRFRPPRLPRPRPRPHARPRP, the “shrunken log2 fold change” value was determined as 0.285.

Regarding RRIRWRPPRLPRPRPRPRTDPRP, the “shrunken log2 fold change” value worked out at 0.342.

As for RRIRARPPRLPRPRPRPIHFPRP, the “shrunken log2 fold change” value was -0.169.

Turning to RRIRDRPPRLPRPRPRPHTFPRP, the “shrunken log2 fold change” value is -0.111.

For RRIRYRPPRLPRPRPRPNKEPRP, the “shrunken log2 fold change” value was -0.0622.

For RRIRHRPPRLPRPRPRPWAFPRP, the “shrunken log2 fold change” value amounted to 0.0477.

Turning to RRIRGRPPRLPRPRPRPMKDPRP, the “shrunken log2 fold change” value came to 0.55.

Turning to RRIRFRPPRLPRPRPRPKTNPRP, the “shrunken log2 fold change” value was found to be 0.0585.

For the sequence RRIRTRPPRLPRPRPRPSHIPRP, the “shrunken log2 fold change” value was -0.274.

Take RRIRLRPPRLPRPRPRPDIHPRP: the “shrunken log2 fold change” value turned out to be 0.126.

For the sequence RRIRFRPPRLPRPRPRPFLFPRP, the “shrunken log2 fold change” value was -0.457.

Consider RRIRRRPPRLPRPRPRPDKIPRP, for which the “shrunken log2 fold change” value was 0.402.

As to RRIRKRPPRLPRPRPRPVMYPRP, the “shrunken log2 fold change” value was -0.144.

Consider RRIRFRPPRLPRPRPRPTIHPRP, for which the “shrunken log2 fold change” value came to 0.865.

On to RRIRMRPPRLPRPRPRPQKIPRP, for which the “shrunken log2 fold change” value came out at 0.255.

With RRIRQRPPRLPRPRPRPNTFPRP, the “shrunken log2 fold change” value was -0.666.

Take RRIRNRPPRLPRPRPRPGTRPRP: the “shrunken log2 fold change” value was 0.00131.

For RRIRKRPPRLPRPRPRPDLVPRP, the “shrunken log2 fold change” value is 0.662.

Take RRIRRRPPRLPRPRPRPAYPPRP: the “shrunken log2 fold change” value was 0.0273.

With RRIRFRPPRLPRPRPRPNYYPRP, the “shrunken log2 fold change” value was -0.613.

Consider RRIRTRPPRLPRPRPRPMQKPRP, for which the “shrunken log2 fold change” value is -0.00906.

Turning to RRIRWRPPRLPRPRPRPRVVPRP, the “shrunken log2 fold change” value came to 0.655.

With RRIRFRPPRLPRPRPRPEHLPRP, the “shrunken log2 fold change” value was -0.223.

Take RRIRMRPPRLPRPRPRPVSHPRP: the “shrunken log2 fold change” value was 0.259.

For RRIRPRPPRLPRPRPRPFRCPRP, the “shrunken log2 fold change” value was found to be 0.12.

With RRIRARPPRLPRPRPRPQHVPRP, the “shrunken log2 fold change” value is 0.0233.

In the case of RRIRKRPPRLPRPRPRPAACPRP, the “shrunken log2 fold change” value worked out at 0.987.

For the sequence RRIRRRPPRLPRPRPRPAEHPRP, the “shrunken log2 fold change” value was 0.313.

On to RRIRARPPRLPRPRPRPPPKPRP, for which the “shrunken log2 fold change” value was determined as 1.29.

On to RRIRMRPPRLPRPRPRPHWIPRP, for which the “shrunken log2 fold change” value is -0.0869.

Take RRIRFRPPRLPRPRPRPPANPRP: the “shrunken log2 fold change” value was 0.858.

RRIRSRPPRLPRPRPRPEHGPRP: the “shrunken log2 fold change” value is -0.0838.

In the case of RRIRLRPPRLPRPRPRPAPKPRP, the “shrunken log2 fold change” value was determined as 0.659.

As to RRIRVRPPRLPRPRPRPPVQPRP, the “shrunken log2 fold change” value turned out to be 0.377.

In the case of RRIRCRPPRLPRPRPRPFCSPRP, the “shrunken log2 fold change” value is -0.008.

As for RRIRARPPRLPRPRPRPRRPPRP, the “shrunken log2 fold change” value was 0.494.

As for RRIRSRPPRLPRPRPRPTVWPRP, the “shrunken log2 fold change” value stood at 0.185.

RRIRNRPPRLPRPRPRPVMFPRP: the “shrunken log2 fold change” value was -0.0883.

With RRIRQRPPRLPRPRPRPDRQPRP, the “shrunken log2 fold change” value was 0.0104.

Consider RRIRNRPPRLPRPRPRPWPVPRP, for which the “shrunken log2 fold change” value was -0.153.

As to RRIRTRPPRLPRPRPRPMTIPRP, the “shrunken log2 fold change” value is -0.137.

Take RRIRERPPRLPRPRPRPLYYPRP: the “shrunken log2 fold change” value is -0.694.

Take RRIRYRPPRLPRPRPRPWTQPRP: the “shrunken log2 fold change” value is -0.343.

For the sequence RRIRPRPPRLPRPRPRPTNIPRP, the “shrunken log2 fold change” value is -0.687.

As for RRIRGRPPRLPRPRPRPELGPRP, the “shrunken log2 fold change” value stood at 1.45.

With RRIRPRPPRLPRPRPRPMHLPRP, the “shrunken log2 fold change” value was -0.034.

In the case of RRIRVRPPRLPRPRPRPKMIPRP, the “shrunken log2 fold change” value was -0.162.

On to RRIRMRPPRLPRPRPRPILYPRP, for which the “shrunken log2 fold change” value is -0.0871.

Regarding RRIRYRPPRLPRPRPRPNFPPRP, the “shrunken log2 fold change” value was -0.313.

Take RRIRCRPPRLPRPRPRPGDVPRP: the “shrunken log2 fold change” value is -0.319.

With RRIRCRPPRLPRPRPRPSWVPRP, the “shrunken log2 fold change” value is -0.273.

For RRIRPRPPRLPRPRPRPTCPPRP, the “shrunken log2 fold change” value was determined as 0.0562.

For the sequence RRIRTRPPRLPRPRPRPGCMPRP, the “shrunken log2 fold change” value was -0.0219.

Take RRIRKRPPRLPRPRPRPRRKPRP: the “shrunken log2 fold change” value worked out at 0.969.

RRIRGRPPRLPRPRPRPCARPRP: the “shrunken log2 fold change” value turned out to be 0.38.

For the sequence RRIRNRPPRLPRPRPRPVTNPRP, the “shrunken log2 fold change” value was determined as 0.0485.

Turning to RRIRLRPPRLPRPRPRPAALPRP, the “shrunken log2 fold change” value is 0.182.

Turning to RRIRKRPPRLPRPRPRPKQTPRP, the “shrunken log2 fold change” value came to 0.00774.

For RRIRHRPPRLPRPRPRPIQSPRP, the “shrunken log2 fold change” value was -0.0918.

In the case of RRIRVRPPRLPRPRPRPWIRPRP, the “shrunken log2 fold change” value was -0.151.

For RRIRKRPPRLPRPRPRPCEFPRP, the “shrunken log2 fold change” value came to 0.252.

On to RRIRGRPPRLPRPRPRPVLCPRP, for which the “shrunken log2 fold change” value amounted to 0.635.

As for RRIRSRPPRLPRPRPRPMWDPRP, the “shrunken log2 fold change” value came out at 0.293.

Turning to RRIRQRPPRLPRPRPRPRVPPRP, the “shrunken log2 fold change” value was 0.339.

With RRIRQRPPRLPRPRPRPTSLPRP, the “shrunken log2 fold change” value was -0.0738.

Regarding RRIRCRPPRLPRPRPRPSMYPRP, the “shrunken log2 fold change” value was -0.418.

With RRIRKRPPRLPRPRPRPFPAPRP, the “shrunken log2 fold change” value was found to be 0.341.

Turning to RRIRVRPPRLPRPRPRPSLLPRP, the “shrunken log2 fold change” value was -0.23.

For RRIRIRPPRLPRPRPRPIMCPRP, the “shrunken log2 fold change” value is -0.0373.

Turning to RRIRYRPPRLPRPRPRPYKQPRP, the “shrunken log2 fold change” value was -0.025.

With RRIRQRPPRLPRPRPRPNSDPRP, the “shrunken log2 fold change” value was -0.594.

In the case of RRIRDRPPRLPRPRPRPTNHPRP, the “shrunken log2 fold change” value is -0.247.

Regarding RRIRKRPPRLPRPRPRPHPLPRP, the “shrunken log2 fold change” value was 0.393.

Take RRIRWRPPRLPRPRPRPPFPPRP: the “shrunken log2 fold change” value came out at 0.37.

With RRIRHRPPRLPRPRPRPAFEPRP, the “shrunken log2 fold change” value was -0.0402.

With RRIRPRPPRLPRPRPRPCHSPRP, the “shrunken log2 fold change” value is -0.871.

For the sequence RRIRPRPPRLPRPRPRPETKPRP, the “shrunken log2 fold change” value was determined as 0.00908.

Regarding RRIRQRPPRLPRPRPRPYRYPRP, the “shrunken log2 fold change” value is -0.0123.

RRIRFRPPRLPRPRPRPQPWPRP: the “shrunken log2 fold change” value was determined as 0.334.

Turning to RRIRTRPPRLPRPRPRPSKWPRP, the “shrunken log2 fold change” value is -0.0672.

As for RRIRARPPRLPRPRPRPRAHPRP, the “shrunken log2 fold change” value was determined as 0.256.

For the sequence RRIRWRPPRLPRPRPRPFPIPRP, the “shrunken log2 fold change” value is -0.169.

As to RRIRARPPRLPRPRPRPQWPPRP, the “shrunken log2 fold change” value was 0.366.
